Earlier results on 1 protein are cited in article PMC5266483.

By pKa is commonly meant the negative logarithm of the acid dissociation constant.

The series deals with Lys14 (position 14, …). Put plainly: NMR. As to conditions: 37 °C; Transmembrane helix in DOPC.

B1: GWALP23-K14 (synthetic construct; L14K) (peptide)
chain: GGALWLALALALAKALALWLAGA
For the protein B1, the pKa is reported as 6.5.
